Measurements reported in doi:10.1101/2022.11.15.516651 (bioRxiv, 2022).
Where a chain is given by its changes, count along the chain named.

T1: FLAG-SLC3A2 N381D (human, UniProt P08195-1 66-630, N381D)
T1 sequence (looked up): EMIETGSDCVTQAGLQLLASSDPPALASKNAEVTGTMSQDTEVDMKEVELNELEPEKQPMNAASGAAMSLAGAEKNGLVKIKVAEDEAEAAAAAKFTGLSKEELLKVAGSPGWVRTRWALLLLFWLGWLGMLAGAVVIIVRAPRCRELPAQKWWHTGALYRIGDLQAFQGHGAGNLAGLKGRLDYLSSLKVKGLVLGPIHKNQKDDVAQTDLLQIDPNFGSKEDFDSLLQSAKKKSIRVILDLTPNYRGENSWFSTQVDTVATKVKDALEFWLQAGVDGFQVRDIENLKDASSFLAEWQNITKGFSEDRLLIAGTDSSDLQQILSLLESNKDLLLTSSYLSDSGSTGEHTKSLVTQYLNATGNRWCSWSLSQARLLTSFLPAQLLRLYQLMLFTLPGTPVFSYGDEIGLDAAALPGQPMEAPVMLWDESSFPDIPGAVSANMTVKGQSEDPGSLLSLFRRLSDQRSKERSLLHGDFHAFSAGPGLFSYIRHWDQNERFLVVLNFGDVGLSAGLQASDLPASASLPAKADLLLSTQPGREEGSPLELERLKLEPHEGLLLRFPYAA

T2: FLAG-SLC3A2 N365D (human, UniProt P08195-1 66-630, N365D)
T2 sequence (looked up): T1 sequence (looked up) with N300D, D316N

B1: SLC7A5 (natural protein)
chain: not shown
B2: SLC7A11 (xc(-)) (natural protein, human (endogenous in HeLa), UniProt Q9UPY5 1-501, looked up)
chain: MVRKPVVSTISKGGYLQGNVNGRLPSLGNKEPPGQEKVQLKRKVTLLRGVSIIIGTIIGAGIFISPKGVLQNTGSVGMSLTIWTVCGVLSLFGALSYAELGTTIKKSGGHYTYILEVFGPLPAFVRVWVELLIIRPAATAVISLAFGRYILEPFFIQCEIPELAIKLITAVGITVVMVLNSMSVSWSARIQIFLTFCKLTAILIIIVPGVMQLIKGQTQNFKDAFSGRDSSITRLPLAFYYGMYAYAGWFYLNFVTEEVENPEKTIPLAICISMAIVTIGYVLTNVAYFTTINAEELLLSNAVAVTFSERLLGNFSLAVPIFVALSCFGSMNGGVFAVSRLFYVASREGHLPEILSMIHVRKHTPLPAVIVLHPLTMIMLFSGDLDSLLNFLSFARWLFIGLAVAGLIYLRYKCPDMHRPFKVPLFIPALFSFTCLFMVALSLYSDPFSTGIGFVITLTGVPAYYLFIIWDKKPRWFRIMSEKITRTLQIILEVVPEEDKL

Assays:
FLAG-SLC3A2 N381D = biological target: T1, FLAG-SLC3A2 N381D; test: affinity purification with mass spectrometry
FLAG-SLC3A2 N365D = biological target: T2, FLAG-SLC3A2 N365D; test: affinity purification with mass spectrometry

Binder | percent decrease of association against WTseq (FLAG-SLC3A2 N381D) [%] | percent decrease of association against WTseq (FLAG-SLC3A2 N365D) [%]
B1 | 44 ± 14 | 44 ± 14
B2 | 67 ± 15 | 67 ± 15
